{"source": "the supplement of paper PMC10567573", "parents": {"B1": {"name": "PPFIA4 (parent)", "chain": "VMTLPSDLRKHRRKLLSPVSREEN"}}}
{"variants_of": "B1", "experiment": "protein stability index of a GFP-peptide fusion (GPS, HEK-293T) (PSI 1-6); higher = more stable", "conditions": "c terminus: a fixed tail appended"}
{"variant": "VMTLPSDLRKFRRKLLSPVSREEN", "note": "[H11F]", "protein stability index": 3.46}
{"variant": "VMTLPSDLRKHRRTLLSPVSREEN", "note": "[K14T]", "protein stability index": 4.01}
{"variant": "VMTLPSDLRKHRRCLLSPVSREEN", "note": "[K14C]", "protein stability index": 2.98}
{"variant": "VMTLPSDLRKHRRALLSPVSREEN", "note": "[K14A]", "protein stability index": 3.61}
{"variant": "VMTLPSDLRKHRRHLLSPVSREEN", "note": "[K14H]", "protein stability index": 3.81}
{"variant": "VMTLPSDLRKHRRGLLSPVSREEN", "note": "[K14G]", "protein stability index": 4.33}
{"variant": "VMTLPSDLRKHRRNLLSPVSREEN", "note": "[K14N]", "protein stability index": 3.9}
{"variant": "VMTLPSDLRKHRRLLLSPVSREEN", "note": "[K14L]", "protein stability index": 3.48}
{"variant": "VMTLPSDLRKHRRDLLSPVSREEN", "note": "[K14D]", "protein stability index": 4.28}
{"variant": "VMTLPSDLRKHRRFLLSPVSREEN", "note": "[K14F]", "protein stability index": 3.54}
{"variant": "VMTLPSDLRKHRRILLSPVSREEN", "note": "[K14I]", "protein stability index": 3.1}
{"variant": "VMTLPSDLRKHRRYLLSPVSREEN", "note": "[K14Y]", "protein stability index": 3.1}
{"variant": "VMTLPSDLRKHRRELLSPVSREEN", "note": "[K14E]", "protein stability index": 4.07}
{"variant": "VMTLPSDLRKHRRVLLSPVSREEN", "note": "[K14V]", "protein stability index": 3.13}
{"variant": "VMTLPSDLRKHRRWLLSPVSREEN", "note": "[K14W]", "protein stability index": 2.43}
{"variant": "VMTLPSDLRKHRRPLLSPVSREEN", "note": "[K14P]", "protein stability index": 4.01}
{"variant": "VMTLPSDLRKHRRRLLSPVSREEN", "note": "[K14R]", "protein stability index": 3.32}
{"variant": "VMTLPSDLRKHRRMLLSPVSREEN", "note": "[K14M]", "protein stability index": 3.65}
{"variant": "VMTLPSDLRKHRRQLLSPVSREEN", "note": "[K14Q]", "protein stability index": 3.94}
{"variant": "VMTLPSDLRKHRRSLLSPVSREEN", "note": "[K14S]", "protein stability index": 3.79}
{"variant": "VMTLPSDLGKHRRKLLSPVSREEN", "note": "[R9G]", "protein stability index": 4.46}
{"variant": "VMTLPSDLDKHRRKLLSPVSREEN", "note": "[R9D]", "protein stability index": 4.1}
{"variant": "VMTLPSDLEKHRRKLLSPVSREEN", "note": "[R9E]", "protein stability index": 4.11}
{"variant": "VMTLPSDLYKHRRKLLSPVSREEN", "note": "[R9Y]", "protein stability index": 3.41}
{"variant": "VMTLPSDLMKHRRKLLSPVSREEN", "note": "[R9M]", "protein stability index": 3.53}
{"variant": "VMTLPSDLVKHRRKLLSPVSREEN", "note": "[R9V]", "protein stability index": 3.82}
{"variant": "VMTLPSDLPKHRRKLLSPVSREEN", "note": "[R9P]", "protein stability index": 4.44}
{"variant": "VMTLPSDLTKHRRKLLSPVSREEN", "note": "[R9T]", "protein stability index": 4}
{"variant": "VMTLPSDLQKHRRKLLSPVSREEN", "note": "[R9Q]", "protein stability index": 4.49}
{"variant": "VMTLPSDLFKHRRKLLSPVSREEN", "note": "[R9F]", "protein stability index": 3.31}
{"variant": "VMTLPSDLKKHRRKLLSPVSREEN", "note": "[R9K]", "protein stability index": 4}
{"variant": "VMTLPSDLWKHRRKLLSPVSREEN", "note": "[R9W]", "protein stability index": 3.49}
{"variant": "VMTLPSDLLKHRRKLLSPVSREEN", "note": "[R9L]", "protein stability index": 3.59}
{"variant": "VMTLPSDLIKHRRKLLSPVSREEN", "note": "[R9I]", "protein stability index": 3.69}
{"variant": "VMTLPSDLNKHRRKLLSPVSREEN", "note": "[R9N]", "protein stability index": 4.18}
{"variant": "VMTLPSDLSKHRRKLLSPVSREEN", "note": "[R9S]", "protein stability index": 4.14}
{"variant": "VMTLPSDLHKHRRKLLSPVSREEN", "note": "[R9H]", "protein stability index": 3.9}
{"variant": "VMTLPSDLRKHRRKLESPVSREEN", "note": "[L16E]", "protein stability index": 4.29}
{"variant": "VMTLPSDLRKHRRKLYSPVSREEN", "note": "[L16Y]", "protein stability index": 3.85}
{"variant": "VMTLPSDLRKHRRKLPSPVSREEN", "note": "[L16P]", "protein stability index": 4.12}
{"variant": "VMTLPSDLRKHRRKLGSPVSREEN", "note": "[L16G]", "protein stability index": 4.43}
{"variant": "VMTLPSDLRKHRRKLMSPVSREEN", "note": "[L16M]", "protein stability index": 4.07}
{"variant": "VMTLPSDLRKHRRKLFSPVSREEN", "note": "[L16F]", "protein stability index": 3.29}
{"variant": "VMTLPSDLRKHRRKLASPVSREEN", "note": "[L16A]", "protein stability index": 4.34}
{"variant": "VMTLPSDLRKHRRKLISPVSREEN", "note": "[L16I]", "protein stability index": 3.41}
{"variant": "VMTLPSDLRKHRRKLDSPVSREEN", "note": "[L16D]", "protein stability index": 4.08}
{"variant": "VMTLPSDLRKHRRKLNSPVSREEN", "note": "[L16N]", "protein stability index": 3.87}
{"variant": "VMTLPSDLRKHRRKLVSPVSREEN", "note": "[L16V]", "protein stability index": 3.84}
{"variant": "VMTLPSDLRKHRRKLTSPVSREEN", "note": "[L16T]", "protein stability index": 4.31}
{"variant": "VMTLPSDLRKHRRKLQSPVSREEN", "note": "[L16Q]", "protein stability index": 3.75}
{"variant": "VMTLPSDLRKHRRKLRSPVSREEN", "note": "[L16R]", "protein stability index": 3.99}
{"variant": "VMTLPSDLRKHRRKLHSPVSREEN", "note": "[L16H]", "protein stability index": 3.89}
{"variant": "VMTLPSDLRKHRRKLWSPVSREEN", "note": "[L16W]", "protein stability index": 3.09}
{"variant": "VMTLPSDLRKHRRKLSSPVSREEN", "note": "[L16S]", "protein stability index": 4.43}
{"variant": "VMTLPSDLRKHRRKLKSPVSREEN", "note": "[L16K]", "protein stability index": 4.03}
{"variant": "VMTLPSDLRKHRRKLCSPVSREEN", "note": "[L16C]", "protein stability index": 4.37}
{"variant": "VMTLPSDLRKHRKKLLSPVSREEN", "note": "[R13K]", "protein stability index": 3.5}
{"variant": "VMTLPSDLRKHRVKLLSPVSREEN", "note": "[R13V]", "protein stability index": 3.78}
{"variant": "VMTLPSDLRKHRHKLLSPVSREEN", "note": "[R13H]", "protein stability index": 4.05}
{"variant": "VMTLPSDLRKHRLKLLSPVSREEN", "note": "[R13L]", "protein stability index": 4.05}
{"variant": "VMTLPSDLRKHRQKLLSPVSREEN", "note": "[R13Q]", "protein stability index": 4.27}
{"variant": "VMTLPSDLRKHRNKLLSPVSREEN", "note": "[R13N]", "protein stability index": 3.95}
{"variant": "VMTLPSDLRKHRTKLLSPVSREEN", "note": "[R13T]", "protein stability index": 3.98}
{"variant": "VMTLPSDLRKHRMKLLSPVSREEN", "note": "[R13M]", "protein stability index": 3.12}
{"variant": "VMTLPSDLRKHRSKLLSPVSREEN", "note": "[R13S]", "protein stability index": 4.36}
{"variant": "VMTLPSDLRKHRYKLLSPVSREEN", "note": "[R13Y]", "protein stability index": 3.63}
{"variant": "VMTLPSDLRKHRCKLLSPVSREEN", "note": "[R13C]", "protein stability index": 3.49}
{"variant": "VMTLPSDLRKHRIKLLSPVSREEN", "note": "[R13I]", "protein stability index": 3.47}
{"variant": "VMTLPSDLRKHRGKLLSPVSREEN", "note": "[R13G]", "protein stability index": 3.91}
{"variant": "VMTLPSDLRKHRPKLLSPVSREEN", "note": "[R13P]", "protein stability index": 4.33}
{"variant": "VMTLPSDLRKHRDKLLSPVSREEN", "note": "[R13D]", "protein stability index": 4.09}
{"variant": "VMTLPSDLRKHRAKLLSPVSREEN", "note": "[R13A]", "protein stability index": 4.11}
{"variant": "VMTLPSDLRKHRFKLLSPVSREEN", "note": "[R13F]", "protein stability index": 2.89}
{"variant": "VMTLPSDLRKHREKLLSPVSREEN", "note": "[R13E]", "protein stability index": 4.59}
{"variant": "VMTLPSDLRKHRWKLLSPVSREEN", "note": "[R13W]", "protein stability index": 2.92}
{"variant": "VMTLPSDLRAHRRKLLSPVSREEN", "note": "[K10A]", "protein stability index": 4.32}
{"variant": "VMTLPSDLREHRRKLLSPVSREEN", "note": "[K10E]", "protein stability index": 3.48}
{"variant": "VMTLPSDLRRHRRKLLSPVSREEN", "note": "[K10R]", "protein stability index": 3.95}
{"variant": "VMTLPSDLRFHRRKLLSPVSREEN", "note": "[K10F]", "protein stability index": 2.75}
{"variant": "VMTLPSDLRPHRRKLLSPVSREEN", "note": "[K10P]", "protein stability index": 4.05}
{"variant": "VMTLPSDLRMHRRKLLSPVSREEN", "note": "[K10M]", "protein stability index": 3.46}
{"variant": "VMTLPSDLRYHRRKLLSPVSREEN", "note": "[K10Y]", "protein stability index": 2.76}
{"variant": "VMTLPSDLRVHRRKLLSPVSREEN", "note": "[K10V]", "protein stability index": 2.96}
{"variant": "VMTLPSDLRCHRRKLLSPVSREEN", "note": "[K10C]", "protein stability index": 3.52}
{"variant": "VMTLPSDLRHHRRKLLSPVSREEN", "note": "[K10H]", "protein stability index": 3.58}
{"variant": "VMTLPSDLRIHRRKLLSPVSREEN", "note": "[K10I]", "protein stability index": 3.25}
{"variant": "VMTLPSDLRQHRRKLLSPVSREEN", "note": "[K10Q]", "protein stability index": 4.29}
{"variant": "VMTLPSDLRWHRRKLLSPVSREEN", "note": "[K10W]", "protein stability index": 3.35}
{"variant": "VMTLPSDLRDHRRKLLSPVSREEN", "note": "[K10D]", "protein stability index": 4.32}
{"variant": "VMTLPSDLRNHRRKLLSPVSREEN", "note": "[K10N]", "protein stability index": 3.77}
{"variant": "VMTLPSDLRLHRRKLLSPVSREEN", "note": "[K10L]", "protein stability index": 3.43}
{"variant": "VMTLPSDLRTHRRKLLSPVSREEN", "note": "[K10T]", "protein stability index": 4.02}
{"variant": "VMTLPSDLRGHRRKLLSPVSREEN", "note": "[K10G]", "protein stability index": 3.87}
{"variant": "VMTLPSDLRSHRRKLLSPVSREEN", "note": "[K10S]", "protein stability index": 3.88}
